Laboratory results as given in US10858688B2, “Observation method using binding and dissociation probe” (KYOTO UNIVERSITY, priority 2015, dated 2020).

Experiments:
[1] = test system: microtubule; experiment: Localization test of probe candidates (integrated SiMS images); type: cell-based, Xenopus laevis; set-up: key: “localization” is positive (P) when above criterion (1) is met; conditions: fixed, permeabilized XTC cell; lysate supernatant of EGFP fused probe; TIRF, 10000 frames
Procedure: (§1) HEK (Human embryonic kidney)-293F cells were transfected with a plasmid encoding a probe candidate protein tagged with FLAG-EGFP or 3×FLAG-EGFP. […] Centrifugal separation was performed on the lysate and the supernatant liquid was collected. In order to perform screening for a probe for IRIS, the binding capacity of a probe candidate in the supernatant liquid with respect to the structure of an XCT cell that was fixed with paraformaldehyde (PFA) and that received a permeabilization process was tested. The appearance and disappearance of single molecule speckles (Single-molecule speckles, SiMS) in the structure was tested. Screening was performed for a probe for IRIS in accordance with the following criteria:
(§2) (1) It is possible to confirm a distribution of target substances in the structure in an image resulting from adding SiMS images;
(§3) The localization test of the above (1), whose result is shown in table 1, was performed in the following procedures. First, the supernatant liquid of lysate of a cell that expressed each probe candidate was brought into contact with an XCT cell that was fixed on a coverglass and that received a permeabilization process. […] The obtained speckle images of 10000 frames were integrated so as to confirm whether or not a distribution of target substances in the cell (microtubule, intermediate filament, focal adhesion or actin filament) was able to be confirmed. When a distribution of a target substances was able to be confirmed, the result of the localization test was treated as P (positive).

[2] = test system: microtubule; experiment: IRIS image test (reconstruction image); type: cell-based, Xenopus laevis; set-up: key: “IRIS image” is positive (P) when above criterion (3) is met; conditions: reconstruction from 10000 frames with DAOSTORM
Procedure: (§4) […] It is possible to reconstruct an image of a target substance by integrating the central positions of the respective speckles. The IRIS image test of the above (3) whose result is described in table 1 was performed in the following procedures. By using all the speckle images of 10000 frames picked up in the localization test, the central point of a probe that has bound to a target in each frame of the speckle images was determined with nanometer accuracy by using DAOSTORM. By adding a large number of pieces of central point information in the fluorescence images of 10000 frames, a reconstruction image (observation image) was generated. Whether or not a distribution of a target molecule was able to be observed in that reconstruction image was determined, and when a distribution of a target molecule was observed, the result was treated as P (positive).

[3] = test system: microtubule; experiment: Washability test of probe candidates; type: cell-based, Xenopus laevis; set-up: key: “washability” is positive (P) when above criterion (2) is met; conditions: speckles equal to or less than about 10% after switching imaging solution 10 to 20 times
Procedure: (§5) (2) It is possible to wash and remove a probe after SiMS imaging (imaging step);
(§6) The […] of the above (2), whose result is shown in table 1, was performed in the following procedures. […] This switching of imaging solution was conducted slowly so that the observation position would not shift. Next, an imaging solution not containing a probe and not containing the active oxygen-scavenging mix was switched 10 to 20 times. After the switching, for confirmation, for an XCT cell sample in the observation chamber, speckle images of 10 frames were picked up under a similar condition to that of the localization test described in the previous paragraph, and when the number of speckles confirmed in the speckle images (i.e., the number of probes that had bound) became sufficiently smaller (equal to or less than about 10%) than the number of the speckles in the speckle images before the washing operation, washing was determined to be possible and the result was treated as P (positive).

[4] = test system: microtubule; experiment: Measurement of binding half-life of probe-target complex; set-up: species or system Xenopus laevis; conditions: fixed XTC cell, single exponential fit
Description: (§7) A probe and a target substance have the following binding characteristics. […] The above half-life herein is preferably a half-life of a probe-target complex formed by binding between a probe and a target substance in a case when a medium containing a probe and a sample containing a target substance that is to be observed are brought into contact under a condition for performing an imaging step. […] Measurement procedures for the half-life are as below. […] Ndissociation is a cumulative relative frequency of a probe that dissociated. A cumulative relative frequency is a ratio of the speckles that disappeared within a given period of time to the total number of measured speckles (i.e. probes) (i.e. probes that dissociated within a given period of time), and represents the total number as 1. Then, by fitting the above complementary cumulative relative frequency function with an exponent function, that half-life is calculated.
The measurement of binding half-life, whose result is shown in table 1, was performed in the following procedures. Speckle images of 10000 frames picked up in the localization test were used in order to measure a period of time between the appearance of a probe that has bound to a target in a speckle image and disappearance through dissociation in a semi-manual mode by using Speckle TrackerJ, an ImageJ plug-in. In case of for example picking up of images with an exposure time of 50 ms and at a frame rate of 20 Hz, it is assumed that a period of time between the appearance and disappearance of a speckle that is observed in only one of consecutive frames is 50 ms and a period of time between the appearance and disappearance of a speckle observed in only two consecutive frames is 100 ms. […] Ndissociation is a cumulative relative frequency of probes that dissociated. Then, by fitting the complementary cumulative relative frequency function with an exponent function, the half-life was calculated. However, the binding half-life with respect to an actin filament of Atto488-Lifeact was measured by using a method that is described in detail in the section for FIG. 9 in the Brief Description of the Drawings.

[5] = test system: focal adhesion; experiment: Localization test of probe candidates (integrated SiMS images); type: cell-based, Xenopus laevis; set-up: key: “localization” is positive (P) when above criterion (1) is met; conditions: fixed, permeabilized XTC cell; lysate supernatant of EGFP fused probe; TIRF, 10000 frames
Procedure: as §1, §2, §3

[6] = test system: focal adhesion; experiment: IRIS image test (reconstruction image); type: cell-based, Xenopus laevis; set-up: key: “IRIS image” is positive (P) when above criterion (3) is met; conditions: reconstruction from 10000 frames with DAOSTORM
Procedure: as §4

[7] = test system: focal adhesion; experiment: Washability test of probe candidates; type: cell-based, Xenopus laevis; set-up: key: “washability” is positive (P) when above criterion (2) is met; conditions: speckles equal to or less than about 10% after switching imaging solution 10 to 20 times
Procedure: as §5, §6

[8] = test system: focal adhesion; experiment: Measurement of binding half-life of probe-target complex; set-up: species or system Xenopus laevis; conditions: fixed XTC cell, single exponential fit
Description: as §7
The measurement of binding half-life, whose result is shown in table 1, was performed in the following procedures. […] Then, by fitting the complementary cumulative relative frequency function with an exponent function, the half-life was calculated. However, the binding half-life with respect to an actin filament of Atto488-Lifeact was measured by using a method that is described in detail in the section for FIG. 9 in the Brief Description of the Drawings.

Row | HALF-LIFE [4] [s] | HALF-LIFE [8] [s] | Molecule | LOCALIZATION [1] | IRIS IMAGE [2] | WASHABILITY [3] | LOCALIZATION [5] | IRIS IMAGE [6] | WASHABILITY [7]
1 | 0.106 | – | MAP4 659-908: EGFP fused (N terminus) mouse MAP4 fragment, amino acid residues 659-908 of sequence number 4 (protein, UniProt P27546 659-908, looked up, fragment, N-terminal EGFP fusion) PPNKEPPPSPEKKAKPLATTQPAKTSTSKAKTQPTSLPKQPAPTTSGGLNKKPMSLASGSVPAAPHKRPAAATATARPSTLPARDVKPKPITEAKVAEKRTSPSKPSSAPALKPGPKTTPTVSKATSPSTLVSTGPSSRSPATTLPKRPTSIKTEGKPADVKRMTAKSASADLSRSKTTSASSVKRNTTPTGAAPPAGMTSTRVKPMSAPSRSSGALSVDKKPTSTKPSSSAPRVSRLATTVSAPDLKSV | P | P | P | – | – | –
2 | – | 0.138 | Paxillin 167-557: EGFP fused (N terminus) human Paxillin fragment, residues 167-557 of sequence number 15 (protein, UniProt P49023 167-557, looked up, fragment, N-terminal EGFP fusion) ANSSPPLPGALSPLYGVPETNSPLGGKAGPLTKEKPKRNGGRGLEDVRPSVESLLDELESSVPSPVPAITVNQGEMSSPQRVTSTQQQTRISASSATRELDELMASLSDFKIQGLEQRADGERCWAAGWPRDGGRSSPGGQDEGGFMAQGKTGSSSPPGGPPKPGSQLDSMLGSLQSDLNKLGVATVAKGVCGACKKPIAGQVVTAMGKTWHPEHFVCTHCQEEIGSRNFFERDGQPYCEKDYHNLFSPRCYYCNGPILDKVVTALDRTWHPEHFFCAQCGAFFGPEGFHEKDGKAYCRKDYFDMFAPKCGGCARAILENYISALNTLWHPECFVCRECFTPFVNGSFFEHDGQPYCEVHYHERRGSLCSGCQKPITGRCITAMAKKFHPE | – | – | – | P | P | P
3 | – | 0.091 | Paxillin 54-498: EGFP fused (N terminus) human Paxillin fragment, residues 54-498 of sequence number 15 (protein, UniProt P49023 54-498, looked up, fragment, N-terminal EGFP fusion) SSEALNGTILDPLDQWQPSSSRFIHQQPQSSSPVYGSSAKTSSVSNPQDSVGSPCSRVGEEEHVYSFPNKQKSAEPSPTVMSTSLGSNLSELDRLLLELNAVQHNPPGFPADEANSSPPLPGALSPLYGVPETNSPLGGKAGPLTKEKPKRNGGRGLEDVRPSVESLLDELESSVPSPVPAITVNQGEMSSPQRVTSTQQQTRISASSATRELDELMASLSDFKIQGLEQRADGERCWAAGWPRDGGRSSPGGQDEGGFMAQGKTGSSSPPGGPPKPGSQLDSMLGSLQSDLNKLGVATVAKGVCGACKKPIAGQVVTAMGKTWHPEHFVCTHCQEEIGSRNFFERDGQPYCEKDYHNLFSPRCYYCNGPILDKVVTALDRTWHPEHFFCAQCGAFFGPEGFHEKDGKAYCRKDYFDMFAPKCGGCARAILENYISALNTLWHPE | – | – | – | P | P | P
